Consider ten molecules from US20120076796A1 (Ablynx, published 2012).

Assay [1] deals with T1, recombinant human Tie2/Fc Chimera (R&D Systems Cat No 313-TI, Lot No BKC06) (human, UniProt Q02763 23-745).
T1 construct: Bought reagent; also called receptor; not shown: Fc portion of the bought chimera
Briefly: competition ELISA: 0.2 ug/ml Tie2/Fc pre-incubated with a dilution series of purified Nanobody, then on coated Ang1 (0.75 ug/ml); bound Tie2/Fc detected with anti-human IgG-HRP; blocked ligand: Ang1. Here is the method:
In order to determine the receptor blocking efficiency of clones tested positive for Ang1 competition, a dilution series of purified Nanobodies are tested in the ELISA-based ligand competition setup. In short, 0.75 ug/ml human. Ang1 (R&D Systems Cat No 923-AN/CF Lot No FHWO73091) is coated in 96 well Maxisorp microliter plates (Nunc) and blocked with 4% Marvel skimmed milk in PBS. In parallel, 0.2 ug/ml Tie2/Fc is incubated with a dilution series of purified Nanobodies. After 1 hour, the receptor-Nanobody pre-mixes are incubated 1 hour with the coated ligand. Bound Tie2/Fc is detected using HRP-conjugated goat anti-human IgG (Jackson Immunoresearch, Cat #109-035-098). Blocking activity is determined as loss of OD signal, as compared to wells where no P.E., or irrelevant P.E., has been added.
(ELISA stands for enzyme-linked immunosorbent assay.)

In assay [2] the target is T2, Recombinant human Angiopoietin-1 (R&D Systems Cat No 923-AN/CF) (human, UniProt Q15389 20-498, limits assumed).
T2 construct: Bought reagent; also called Ang1; human Ang1
T2 sequence (looked up): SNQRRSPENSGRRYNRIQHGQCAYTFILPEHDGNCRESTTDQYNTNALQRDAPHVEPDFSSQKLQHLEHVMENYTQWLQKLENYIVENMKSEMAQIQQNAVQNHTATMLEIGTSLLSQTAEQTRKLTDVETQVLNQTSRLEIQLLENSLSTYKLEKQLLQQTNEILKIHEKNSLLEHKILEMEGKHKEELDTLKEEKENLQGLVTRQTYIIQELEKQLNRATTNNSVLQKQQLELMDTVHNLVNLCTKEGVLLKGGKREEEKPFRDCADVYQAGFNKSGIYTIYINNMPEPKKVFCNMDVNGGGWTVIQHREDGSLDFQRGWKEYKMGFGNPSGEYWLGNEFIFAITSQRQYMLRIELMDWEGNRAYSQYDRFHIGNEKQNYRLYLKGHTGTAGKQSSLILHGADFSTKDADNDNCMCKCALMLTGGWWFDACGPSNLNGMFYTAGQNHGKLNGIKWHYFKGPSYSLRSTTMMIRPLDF
Briefly: phage ELISA: 10 ul monoclonal phage supernatant in 100 ul on 0.2 ug/ml coated Ang1, anti-M13-HRP, OD 450 nm. On the procedure: (§1) In order to determine binding specificity to Ang1, the clones are tested in an ELISA binding assay setup, using the monoclonal phage pools. Phage binding to Ang1 (R&D Systems Cat No 923-AN/CF, Lot No FHWO73091) is tested. Shortly, 0.2 ug/ml Ang1 is immobilized on Maxisorp ELISA plates (Nunc) and free binding sites are blocked using 4% Marvel skimmed milk in PBS. Next, 10 ul of supernatant from the monoclonal phage inductions of the different clones in 100 ul 2% Marvel PBS are allowed to bind to the immobilized antigen. […] Binding specificity is determined based on OD values compared to controls having received an irrelevant phage or no phage.

In assay [3] the target is T3, Recombinant human Angiopoietin-2 (R&D Systems Cat No 623-AN/CF) (human, UniProt O15123 19-496, limits assumed).
T3 construct: Bought reagent; also called Ang2; human Ang2
T3 sequence (looked up): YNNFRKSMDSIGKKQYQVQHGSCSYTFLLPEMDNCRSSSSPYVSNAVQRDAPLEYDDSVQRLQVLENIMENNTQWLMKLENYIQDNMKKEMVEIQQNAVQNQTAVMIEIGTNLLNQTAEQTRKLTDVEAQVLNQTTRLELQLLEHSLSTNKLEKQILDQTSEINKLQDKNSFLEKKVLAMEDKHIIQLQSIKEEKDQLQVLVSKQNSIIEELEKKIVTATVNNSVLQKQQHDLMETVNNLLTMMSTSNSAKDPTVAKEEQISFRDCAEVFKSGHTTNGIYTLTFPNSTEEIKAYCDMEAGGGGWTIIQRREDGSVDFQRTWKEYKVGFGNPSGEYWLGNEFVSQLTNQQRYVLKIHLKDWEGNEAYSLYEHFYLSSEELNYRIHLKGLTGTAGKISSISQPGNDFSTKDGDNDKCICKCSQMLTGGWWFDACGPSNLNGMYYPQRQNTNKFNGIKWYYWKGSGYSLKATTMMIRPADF
Briefly: phage ELISA: 10 ul monoclonal phage supernatant in 100 ul on 0.2 ug/ml coated Ang2, anti-M13-HRP, OD 450 nm. On the procedure: as §1, with “to Ang2,” for “to Ang1,”, “to Ang2” for “to Ang1”, “No 623-AN/CF)” for “No 923-AN/CF, Lot No FHWO73091)”, “ug/ml Ang2” for “ug/ml Ang1”, “plates (Nuns)” for “plates (Nunc)”, “2% Marvel.” for “2% Marvel”

For assay [4], the target named is T4, biotinylated rh Ang2 (R&D Systems Cat No BT623, Lot No BNR174091) (human, UniProt O15123 19-496, limits assumed, biotinylated (sites not given)).
T4 construct: Bought reagent; also called biotinylated Ang2
T4 sequence (looked up): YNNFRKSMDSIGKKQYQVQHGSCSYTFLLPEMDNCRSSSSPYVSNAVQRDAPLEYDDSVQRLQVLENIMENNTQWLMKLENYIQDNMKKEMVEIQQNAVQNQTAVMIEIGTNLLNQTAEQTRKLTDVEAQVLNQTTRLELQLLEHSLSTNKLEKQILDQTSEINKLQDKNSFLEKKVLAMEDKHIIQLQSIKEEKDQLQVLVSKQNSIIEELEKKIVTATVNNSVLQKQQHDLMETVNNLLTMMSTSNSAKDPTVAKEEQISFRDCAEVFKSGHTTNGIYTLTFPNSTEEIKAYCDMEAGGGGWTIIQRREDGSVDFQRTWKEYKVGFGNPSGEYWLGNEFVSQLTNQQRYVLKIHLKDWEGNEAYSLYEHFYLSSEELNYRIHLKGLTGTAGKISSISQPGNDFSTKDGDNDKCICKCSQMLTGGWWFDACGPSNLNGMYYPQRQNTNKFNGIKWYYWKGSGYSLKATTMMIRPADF
Briefly: competition ELISA: 0.05 ug/ml biotinylated Ang2 pre-incubated with 10 ul periplasmic extract, then on coated Tie2/Fc (4 ug/ml); bound Ang2 detected with extravidin-HRP; blocked partner: Tie2/Fc. Here is the method:
Clones tested positive in the Ang2 binding assay are screened for their ability to block Ang2 binding to Tie2/Fc. For this, Nanobody-containing periplasmic extracts (P.E.) are used in an ELISA-based ligand competition setup. In short, 4 ug/ml human Tie2/Fc Chimera (R&D Systems Cat No 313-TI, Lot No BKC06)) is coated in 96 well Maxisorp microliter plates (Nunc) and blocked with 4% Marvel skimmed milk in PBS. In parallel, 0.05 ug/ml biotinylated rh Ang2 (R&D Systems Cat No BT623, Lot No BNR174091) is incubated with 10 ul of periplasmic extract containing nanobody of the different clones in 100 ul 2% Marvel/PBS. After 1 hour, the biotinylated Ang2-Nanobody pre-mixes are incubated 1 hour with the coated receptor. Bound biotinylated. Ang2 is detected using HRP-conjugated extravidin (SIGMA E2886-1mL, 126K4801). Blocking activity is determined as loss of OD signal, as compared to wells where no P.E., or irrelevant P.E., has been added.

Assay [5] deals with T4, biotinylated rh Ang2 (R&D Systems Cat …). Briefly: competition ELISA: 0.05 ug/ml biotinylated Ang2 pre-incubated with a dilution series of purified Nanobody, then on coated Tie2/Fc (4 ug/ml); bound Ang2 detected with extravidin-HRP; blocked partner: Tie2/Fc. Here is the method:
In order to determine the receptor blocking efficiency of clones tested positive for Ang2 blocking, a dilution series of purified Nanobodies are tested in the ELISA-based ligand competition setup. In short, 4 ug/ml human Tie2/Fc Chimera (R&D Systems Cat No 313-TI, Lot No BKC06)) is coated in 96 well Maxisorp microtiter plates (Nunc) and blocked with 4% Marvel skimmed milk in PBS. In parallel, 0.05 ug/ml biotinylated rh Ang2 (R&D Systems Cat No BT623, Lot No BNR174091) is incubated with a dilution series of purified Nanobodies. After 1 hour, the biotinylated Ang2-Nanobody pre-mixes are incubated 1 hour with the coated receptor. Bound biotinylated Ang2 is detected using HRP-conjugated extravidin (SIGMA E2886-1ML, 126K4801). Blocking activity is determined as loss of OD signal, as compared to wells where no P.E., or irrelevant P.E. has been added.

T1 sequence (Q02763 23-745, change not shown): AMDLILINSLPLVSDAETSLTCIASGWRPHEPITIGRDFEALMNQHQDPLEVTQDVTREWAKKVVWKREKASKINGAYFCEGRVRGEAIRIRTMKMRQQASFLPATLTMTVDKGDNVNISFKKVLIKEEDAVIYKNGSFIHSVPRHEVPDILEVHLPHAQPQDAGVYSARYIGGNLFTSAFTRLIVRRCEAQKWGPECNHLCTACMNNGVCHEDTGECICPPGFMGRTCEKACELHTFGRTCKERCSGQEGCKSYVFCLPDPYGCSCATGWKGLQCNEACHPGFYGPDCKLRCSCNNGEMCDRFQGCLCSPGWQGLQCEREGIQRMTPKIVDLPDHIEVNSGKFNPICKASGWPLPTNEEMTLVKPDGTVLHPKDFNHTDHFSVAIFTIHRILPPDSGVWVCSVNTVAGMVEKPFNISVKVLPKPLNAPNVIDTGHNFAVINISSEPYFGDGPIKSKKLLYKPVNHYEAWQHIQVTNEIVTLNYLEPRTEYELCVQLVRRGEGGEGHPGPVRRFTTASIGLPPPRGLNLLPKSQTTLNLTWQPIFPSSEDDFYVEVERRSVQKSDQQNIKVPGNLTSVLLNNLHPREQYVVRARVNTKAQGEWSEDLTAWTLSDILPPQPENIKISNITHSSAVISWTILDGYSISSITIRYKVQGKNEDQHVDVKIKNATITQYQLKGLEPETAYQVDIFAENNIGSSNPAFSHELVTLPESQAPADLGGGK

B1: 162-E9 (VHH)
VHH: EVQLVESGGGLVQPGGSLRLSCAASGFTLDDYAIGWFRQAPGKEREAVSCISSVDGSTHYADSVKGRFTISRDNAKDTVYLQMNSLKPEDTAAYYCAVQGYSGGYYYTCEDSADFGFWGQGTQVTVSS
notes: Nanobody
Consider B1, for which the “IC50 (read off the curve)” value in assay [1] is roughly 3 nM.

B2: 184-B6 (VHH)
VHH: EVQLVESGGGLVQPGGSLRLSCAASGFTFSNYAMTWVRQAPGKGLEWVSDISWDGDITTYAASVKGRFTISRDNAKKTLYLQMNSLKPEDSAVYYCNTYGYDSGRYYSYWGQGTQVTVSS
notes: Nanobody
Consider B2, for which the binding result in assay [2] is “binds”.

B3: 166-C1 (VHH)
VHH: EVQLVESGGGLVQAGGSLRLSCAASGFTFGSTTIGWFRQAPGKEREGVSCISTGDGSTYYAESVKGRFTISSDNAKNTVYLQMNSLKPEDTAVYYCALDQAPMWSSWSAPYEYDYWGQGTQVTVSS
notes: Nanobody
Regarding B3, the binding result in assay [3] and in assay [4] was “binds” in each case.

B4: 166-F8 (VHH)
VHH: EVQLVESGGGLVQAGGSLRLSCAASGFTFGTTTIGWFRQAPGKEREVVSCISTGGGSTYYTESVKGRFTISSDNAKNTVYLQMNSLKPEDTAVYYCALDQAPMWSNWSAPYEYDYWGQGTQVTVSS
notes: Nanobody
In the case of B4, the binding result in assay [3] and in assay [4] was “binds” throughout.

B5: 166-H4 (VHH)
VHH: EVQLVESGGDLVQAGGSLRLSCAASGFTFGDFTIGWFRQAPGKEREGVSCINTGDGSTNYAESVKGRFTISSDNAKNTVYLQMNSLKPEDTAVYYCALDQAPMWSSWSAPYEYDYWGQGTQVTVSS
notes: Nanobody
Consider B5, for which, in assay [5], the “IC50 (read off the curve)” value is roughly 4 nM.

B6: 166-D7 (VHH)
VHH: EVQLVESGGGLVQAGGSLRLSCAASGFTFSDTTIGWFRQAPGKEREGISCISTGDGSTYYAESVKGRFTISSDNAKNTVYLQMNSLNPEDTAVYYCALDQAPLWSTWSAPYEYDYWGQGTQVTVSS
notes: Nanobody
Take B6: the binding result in assay [3] and in assay [4] was “binds” throughout.

B7: 166-C10 (VHH)
VHH: EVQLVESGGGLVQAGGSLRLSCAASGFTFGTTTIGWFRQAPGKEREGVSCISTGDGSTNYAESVKGRFTISSDNAKNTVYLQMNSLKPEDTAVYYCALDQAPMWSSWSAPYEYDYWGQGTQVTVSS
notes: Nanobody
Take B7: the binding result in assay [3] and in assay [4] was “binds” throughout.

B8: 185-H5 (VHH)
VHH: EVQLVESGGGLVQPGGSLRLSCAASGFTLDYYAIGWFRQAPGKEREGVSYISSSDGRTYYADSVKGRFTISRDNAKNTVYLQMNSLKPEDTAVYYCATDLSGRGDVSEYEYDYWGQGTQVTVSS
notes: Nanobody
As to B8, the binding result in assay [2] is listed as “binds”.

B9: 173-H9 (VHH)
VHH: EVQLVESGGGLVQPGGSLRLSCAASGFTLSGNWMYWLRQAPGKGLEWISTITPRGLTAYADSVKGRFTISRDIAENTLYLQMNSLKSGDTAVYYCARDKTGERRGQGTQVTVSS
notes: Nanobody
As to B9, the binding result in assay [2] is listed as “binds”.

B10: 162-E1 (VHH)
VHH: EVQLVESGGGLVQAGGSLRLSCAASGSIFSINAMGWYQQAPGKQRELVAFITSVGTTNYADSVKGRFIISRDNAKNTVYLQMNSLKPEDTAVYYCAADLHYSGPNYWGQGTQVTVSS
notes: Nanobody; Footnote: q in FR2 of 162-E1 from an Amber stop codon
For B10, the “IC50 (read off the curve)” value in assay [1] was roughly 3 nM.
